Assay: label from the status in PepcDB records
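Further: failed if final PepcDB status was selected cloned or expressed and not failed if soluble or beyond.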

Row | Sequence | protein production
1 | SRPATPPVTPPSREGHVADLDRFPQDLRVYAMKAGADRQLLPFTEQAAQDARWNRRFFAPWRMTRISVPVKDVAAPFGTDGRPRGYAENLLPWDVTRWGALASGAALDLYPSQAWKGIVVSNSALREVPTLRPMFTAPTRAGQGYPFDMFQRTAVWMGTPVFVGHATADRAWLYVETAFAAGWMPAADVARVDDAFMTRYESGSLAAILRDDTSLNGADGTHLATAHIGTVLPLSGASQVGRTVLVPVRAPEGHAVVVPVLLTSGEAAQKPVPLTPGNMAELGNRMMGQPYGWGGLYEDRDCSSTLRDLFTPFGLWLPRNSASQAKAGRYVDIAKLDADDKEARIVAEGVPFMTLLWLRGHITLYLGLHEGQAAMFHNMWGIRTHRGGVEGRYVLGRAVVTSTRPGLDVPGNDNADGLLGRMQGMSILPGGAQ | not failed
2 | MRKIMREIAVYGKGGIGKSTLSANLSAALALAGRKVLQIGCDPKHDSTRLLTHGREMPTVLDYMRVTNPLDYRLEEVLAHGFSGVGCVEAGGPNPGVGCAGRGIISTFEFLDRFRLKERYDTVVYDVLGDVVCGGFAVPIRKEYADTIFIVTSGEFMALYAANNILRGVRNYDNEEKRIAGILYNRRNIEGEDDRVARFAGAVGLSVCAVIPRSDSFTRAERGKMTVMEQGSDKAIMSIFSGLAQALISGCALHEAKPLTDNELEAIVLGSISSTGGPLSGPDSLPASVTEEPSAAGPPPEIGLTDPNRYLSKNILRSEPLHGCAFNGAMSVGAQISDAVILAHSPKSCTHIMYQTISSAGRRTLFERGALLPVSLAPNLESTDMGEAEMIFGGMEKLEEKILELKARQPRAIVVVSACPAGIIGDDIGRTRRFSEPGLPVVTLKTDGNLAGDYLQGMLMAYTSLARQVIRKDVPTLPDTVNIVFEKFIVTNTNDNFQTIGSLLSRLGVRVNCRFLCETTFDSLETFCTAQLNLLAYKDYTGKLLEDFFTREYGSVFLDRAFPVGFAETEDWLRDVAAFFGRPAAAEGIIEEHKELYAREVEALKADLAGKRLMIITYNHELDWILKTALDVGIDIVKIGVFNFSQDEGFRTRLDAAFNVVENYDRGERDQDIAAYKPDILLTNYASSLADEPFVADTIPMCPDVGFHSGLVLARRWARLLKLNLKGEWRQDELLFRQYYAG | failed
3 | MRVDIWSDVVCPFCYIGKKRLEHVAAEAGIELDVHWHSFELDPDAPTSHDTSNTERLAKKYGRTFEEMQEMQQNIASMAAQEGIDFQWQKANSGNSFNAHRIIHLAQSKGLGNEAEEAFFHAYMTEGLAIGEREVVEEIASRIGLDHAEVEFVLDSNELSDFVRHDEKIAHEQLNISGVPFFVFDQKLALSGAQPKEVFLQVLQKALTQRENDAVAEASSDAVCSDDSCDIPQKS | failed
4 | MGSSHHHHHHSSGRENLYFQGMLLHSVQTPRGEILNVSEQEARDVFGASEQAIADARKATILQTLRIERDERLRACDWTQVQDVVLTADQKATWAKYRQALRDLPETVTDLSQIVWPQLPV | not failed
5 | MSFDRNLCKVLVADDSRLVTSSVTAILRQLDLSDIYYAYKPFEVINLCKQMHFDLVICDYNFQTQLNGFQLLEELKHAQILPAHTTFVFLTGENDHKIVRSIVDCDPDDYLLKPFNHTFFRNRLLSAMKRRSVLLPIYEKLREMDFEGVIEATDTLLPFHPEYSKLIRRYRAHAMVQNKQFSSARSEYEKLLKEDNFDWIKTALANTLIETDNLEKAQEVLESLSSKKENPYYHDEMSNMAVLSEDIPKAIKHLKQSTMLLDAGSERELVITNLSLASESYDDAVTYIKRYYEKNENTFRGGIFTKLNFVRCHLYRSLNAPSNQCFENLLFGLNPLIGEIEKNSQFKAQFALIDAHIALIRGDLKAAISQVRAVLASNQLSHFYDLYHLCVLLERCSFLSEMKSMLPRARRAIAEAQHPSIFRSQVHMLKSLEMRLQESQTKIEQIRRQITAQKSISTSAITPHFDRYFQLHDLLPHSKKICLAIVRLASLRPFEYRGEYAIYRKLEHCDRVIRNLCDNRELQSIKYNNMYQYAKQNITVSNG | failed
6 | MMLAGCQSEEETSQFLLACKYDAPATIAAMLDNGIDVDGQDKTGLSGLMVAAAENRRDVVELLLKRRAKPNLQTRQGVTALMLAAARGSDTAIIGDLLQAGASVNQTSIDKSTALMSAISDGGDVRNDYQHILAMKKPDAPVEEESTLDKIVGATAAKSLATGNRALMTEDMALQLAPGAFKKNVDEIVALLLKHGADVKAVNVSGESAFFLAVDHARSAETITTLANAGADTSLADKSGTTPLMLAAAGDDPDLVLALSASGVEVDKPNREGLTALQVAAGQGAPAVIAALAQRGAKVDQLSANDLSPLMLAVKMNNKANVEALLAAGASVNLSNKAGYTAIGYSRAGEVRQLLLAQHAELKGQAAHMAQSELQFCANAFADKLAYSDIARAVNNDTRPDIMRHQQSCPELGELTMLLGEFTFTPAGATYLGEPVTCKVSEYRKTFEVNCR | failed
7 | PEEQRQKLPDITAADPLEYKKQLLKLAISRIVFMRRFIADSLYYLPDVFFVTDKDNNIILLNKAAENLTAELGAQYHYRMPISTILNHLHNEEGHRINFDQVRNNEINSQCYAENGRAFDLRIAACRQVINQPDGWLIMLIDISAVKSAEEQRQRILHLLSHDMRSPQISILALIDRFSRTSC | failed
8 | MDKRLIVMHNLSRHYGKQYWWQQNSLEDWLMMILIQRTSSKNVAQAVHNLQPYMQVDRLMALSQSELETLVRPAGFYRQKAQRIHDLLTWFVAQGGSFEKIAEKPAAELRETLLALNGIGNETADVMLMYTFGKKTFVADTYAMRLFNRLGFGPYTNYAKMQADFAPALDQITLDEAREWHALIDEHGKTQVRHAYDDRFLLQPDLTEAAWPPEAVQVEPPHDDPGSGKWRHAADPSAMTHK | failed
9 | DVREFQPENFARFHPGGSLGRRLLSKVQDEMFSDNIPSVASDADFTSIIHKISSSHLGLTLVNLKDDSLAIITDGDLRRAMESKGRDAFDLVAKDIASINPASISPESNIQKAYEIMESKGITSLIVVESNSVVGIL | failed
10 | MENLTNDVITILQYLLPGFVSAWVFYSLTSYPKPSQFERVVQALIFTIFIQAIVVVVEFSVRWLCATYEITGVPDKFGLVGSVVTAILLGVAFAGFANNDLLHKCLRRCLITRETSYLRNGLVPFYRTLLLLSYT | failed
11 | MLVWLSDSQAVALVGLVGGIALGLAARLGRFCTLGAIEDLLYGGSDVRMRMWVLAIGAAMAGSFGLMGLGWLDPGQSYYLSIRWMPLASILGGLMFGYGMALAGNCGYGSIARLGGGDLRAFVIVLVMGVFTYVTLAGPLAPLRNLLFPQIEVAGDLPPGLAHHAHALTGLPVHVIGIGIGLILCLGALSSRDMRQEPKSIFWSLVVAAAIVGGWAGSYWVYQHGFDGLQVVSHSFSAPVGESILYAMTGSVRPLSFAVGSVAGVWAGAFIGSLIKGHFRWEACEDPRELRRQILGAAIMGTGAVIAMGCTVGQGLTAFSLLAISAPVTFLAIFAGAALGLRQLIEGFSAAE | failed
12 | RNTNPGIKCFAVRSLGWVEMTEEELAPGRSSVAVNNCIRQLSYHKNNLHDPMSGGWGEG | failed
13 | MANPNEAYRHYMKKLSYETDIADLSIDIKKGYEGIIVVDVRDAEAYKECHIPTAISIPGNKINEDTTKRLSKEKVIITYCWGPACNGATKAAAKFAQLGFRVKELIGGIEYWRKENGEVEGTLGAKADLFWNMKKESLEHHHHHH | not failed
14 | QDKKEQFKQLFQIVEQSFGRPLSPYEIETLNQWIDVDHHDLSVIQAALDEALSQNKLSFKYIDRILLNWKKNNV | not failed
15 | MASSISAAEVKVVPEEYNFLQKHVAFFDRNKDGIVYPSETFQGFRAIGCGYLLSTFAAVFINISLSSKTRPGKGFSFSFPIEVKNVRLGIHSSDSGVYDKDGRFVASKFEEIFAKHAHTHRDALTSKELKELLKANREPNDCKGGILAFGEWKVLYNLCKDKSGLLHKEIVRAVYDGSLFEQLEKQRSSKTP | failed
16 | ECSQDCATCSYRLVRPADINFLACVMECEGKLPSLKIWETCKELLQLSKPELPQDGTSTLRENSKPEESHLLAKRYGGFMKRYGGFMKKMDELYPMEPEE | failed
17 | MSLALLLGYELPLTGANAAYGRVFQEAARLQLDRFNAAGGVGGRPVDILYADSRDDADQARTIARAFVDDPRVVGVLGDFSSTVSMAAGSIYGKEGMPQLSPTAAHPDYIKISPWQFRAITTPAFEGPNNAAWMIGDGFTSVAVIGVTTDWGLSSAQAFRKAFELRGGAVVVNEEVPPGNRRFDDVIDEIEDEAPQAIYLAMAYEDAAPFLRALRARGSALPVYGSSALYSPKFIDLGGPAVEGVRLATAFVLGASDPVVVEFVSAYETLYGAIPTLFAAHGYDAVGIMLAAVGRAGPEVTRESLRDALAATDRYAGVTGITRFDPETRETTKILTRLVVREGDFRVIDREGHHHHHH | not failed
18 | SVSAGVQAVESILDREEIRRVILVGAGTGAGVALEIAKNQPRRVERLVLDSPLVTFDEKQLKGMSTALKMMPGFFFRKKNKKDLLQQVEEARTAVPMGFSEITMPTLIIRGSAAKAGIDSDLEKQIPSARATTIIGANWLTYTTHGRQTGAAIAEFLAQ | failed
19 | MARKVILFIAMSIDNYIADDQGAVDWLEKNVHGTESDDSYEKMYSKIDTVIMGRTTYEQVTQKLSPEKYVYADRQTYIVTSHLGEDTDKIKYWKQSPVELVKRIQKEKGKDVWIVGGAKLIDPLVQANLIDTYILTTVPIFLGSGIRLFDRLEEQVPVRLIDVYQKNELVYSIYQRG | not failed
20 | MSSAQFDHVTVIKKSNVYFGGLCISHTVQFEDGTKKTLGVILPTEQPLTFETHVPERMEIISGECRVKIADSTESELFRAGQSFYVPGNSLFKIETDEVLDYVCHLEG | not failed
21 | MNIETLMIKNPPILSKEDRLGSAFKKINEGGIGRIIVANEKIEGLLTTRDLLSTVESYCKDSCSQGDLYHISTTPIIDYMTPNPVTVYNTSDEFTAINIMVTRNFGSLPVVDINDKPVGIVTEREFLLLYKDLDEIFPVKVFMSTKVQTIYKEVRLDQAVKLMLRRGFRRLPVIDDDNKVVGIVTVVNAIKQLAKAVDKLDPDYFYGKVVKDVMVTNLVTIDELASVNRAAAEMIVKRIGSLLILNKDNTIRGIITERDLLIALHHILVMEKFKEKL | not failed
22 | MDVRQRLISSMVISLGLTIISEGIVLIGIASLLHISLFFIFPALVIFWLFQWIISPYVVGRGGYEVSPNDPQYGWLYNLVRRIAEESKIKPPRVFVIDAPYPNAFAYGNRLGGMRVGITLPLLNILDVDELTAVIAHEVGHIKHRDVEIGMTIGLIPTVLGYISTLLMNFGYLALFLAADEIELLFAIAALAIGFVIFVVTFILQIFVLWFNRLRESYADYNSFLVLGEGSKALATALAKIEIYMQNIRIDPFTGIIVTAPPVKVEEKDPHLLVEQWLRTKVSAFKDILSTHPYPARRAQMIYRLIYGSNI | failed
23 | MSAKDLPNGGPRLIDRYLLRLLLWPLAACLGVTVIALLLERILRLLDVLSQSSARFGYVAQLAANLVPHYLGLALPVAFFVALFIVIVKLSDGSEIDALLASGQSLERIAAPFVAVGVLLSVFSIIVFGYMQPYSRYAYRAVMHAAVNAGWNGRLAGGAFIDDKGSLLTADSADIAGQRLTRVFIRRLDAKGQEEIITAASADLKMDPDGKTITMDLRDGRRIAHDAYGTYRNLAFTSLTTQTPLSAAAVLLRDRGGDERELTMGELRREAKSPDPVVSKGTLLSEFYGRLARAAFLPFLPLLAFPLGLASKRGNRAPGLIMAGLLLLAFQHSLLLGQGMAKAGKADAFAAIWIPFTLFAALSVWLFVGSRTRPGDTPVSRLVRRINTLVTHALRLLPQPKKRQAA | failed
24 | GDIEQAAGHVVDGLSHLEVHPDVPDGIRALRERGFRLVTMTNGSSDLSKRLLGRAGLADCFESHLDASGPQRWKPAQAAYQYVVEQVGVRLDEAVLVAVHPWDVDGAQRAGLGGAWLRRDAADYPQVMLPPTYTVGNLRELAETLA | failed

Reference: a protein production outcome set (Wang et al. 2014)
